Assay results as given in PMC8543943, “Structure-guided steric hindrance engineering of Bacillus badius phenylalanine dehydrogenase for efficient L-homophenylalanine synthesis” (Biotechnology for Biofuels, 2021).

Columns and labels:
Assay in all cases: purified protein
Format in all cases: biochemical, Pseudobacillus badius
[1] = substrate: O=C(O)C(=O)CCc1ccccc1; details: reductive amination, 2 M NH4Cl/NH4OH pH 9.5, 0.5 mM NADH, 30 °C
[2] = substrate: NC(=O)C1=CN([C@@H]2O[C@H](COP(=O)(O)OP(=O)(O)OC[C@H]3O[C@@H](n4cnc5c(N)ncnc54)[C@H](O)[C@@H]3O)[C@@H](O)[C@H]2O)C=CC1; details: reductive amination, 2 M NH4Cl/NH4OH pH 9.5, 20 mM 2-OPBA, 30 °C, varied: cofactor
[3] = substrate: O=C(O)C(=O)Cc1ccccc1; details: reductive amination, 2 M NH4Cl/NH4OH pH 9.5, 0.5 mM NADH, 30 °C

B1: BbPheDH (Pseudobacillus badius) (protein)
chain: SLVEKTSIIKDFTLFEKMSEHEQVVFCNDPATGLRAIIAIHDTTLGPALGGCRMQPYNSVEEALEDALRLSKGMTYKCAASDVDFGGGKAVIIGDPQKDKSPELFRAFGQFVDSLGGRFYTGTDMGTNMEDFIHAMKETNCIVGVPEAYGGGGDSSIPTAMGVLYGIKATNKMLFGKDDLGGVTYAIQGLGKVGYKVAEGLLEEGAHLFVTDINEQTLEAIQEKAKTTSGSVTVVASDEIYSQEADVFVPCAFGGVVNDETMKQFKVKAIAGSANNQLLTEDHGRHLADKGILYAPDYIVNSGGLIQVADELYEVNKERVLAKTKHIYDAILEVYQQAELDQITTMEAANRMCEQRMAARGRRNSFFTSSVKPKWDIRN
notes: His-tagged, full length, pET-28a (+), expressed in E. coli BL21 (DE3), Ni-NTA purified
[1]
  Km: 600 ± 60 µM
  kcat: 11 ± 1 s⁻¹
  kcat/Km: 17000 ± 1000 M⁻¹ s⁻¹
[2]
  Km: 65 ± 3 µM
  kcat: 8 ± 1 s⁻¹
  kcat/Km: 115000 ± 14000 M⁻¹ s⁻¹
[3]
  Km: 300 ± 40 µM
  kcat: 115 ± 6 s⁻¹
  kcat/Km: 370000 ± 45000 M⁻¹ s⁻¹
